Laboratory results taken from patent US12356911B2, “Group of UDP-glycosyltransferase for catalyzing carbohydrate chain elongation and application thereof” (GSYNBIOT (SHANGHAI) CO., LTD, priority 2017, dated 2025).
Where a chain is given by its changes, count along the chain named.

B1: GT29-7: Ginseng UDP-glycosyltransferase, 446 amino acids, SEQ ID NO: 16 (protein)
chain: MDNQKGRISIALLPFLAHGHISPFFELAKQLAKRNCNVFLCSTPINLSSIKNRVSDKDSSASIKLVELHLPSSPDLPPHYHTTNGLPSHLMIPLRNAFDTAGPTFSEILKTLNPDLLIYDFNPSWAPEIASSHNIPAVCFIIGGAASSSMSLHSFKNPGEKYPFLDFDDNSNITPEPPSADNMKLLINFMTCFERSCDIILIKSFRELEGKYFDFFSTLSDKTLVPVGPLVQDPMGHNEDPKTEQFINWLDKRAESTVVFVCFGSECFLSNEELEEVAIGLEISMVNFIWAVRLIEGEKKGVLPEGFVQRVGDRGLVVEEWAPQARILGHSSTGGFVSHCGWNSITESMKFGVPVIAMARHFDQPLNGKLAAEVGVGMEVVRDENGKYKREGIAEVIRKVVVEKSGEVIRRKARELSEKMKEKGEQEIDRVVEELVQICKKKKDEQ
modifications: misc_feature - GT29-7; Panax ginseng
B2: GT29-5: Ginseng UDP-glycosyltransferase, 446 amino acids, SEQ ID NO: 14 (protein)
chain: MDNQKGRISIVMLPFLAHGHISPFFELAKHLSKRNCNIFLCSTPINLSSIKNRISDKDSSASIKLVELHLPSSPDLPPHYHTTNGLPSHLMVPLRNAFETAAPTFSEILKTLNPDLLIYDFNPSWAPEIASSHNIPAVCFIIGGAASFSMSLHSFKNPGEKYPFLDFDDNSNITPEPPSADNMKLLLDFMTCFERSCDIILIKSFRELEGKYIDLLSTLSDKTLVPVGPLVQDPMGHNEDPKTEQIINWLDKRAESTVVFVCFGSEYFLSNEELEEVAIGLEISMVNFIWAVRLIEGEKKGVLPEGFVQRVGDRGLVVEGWAPQARILGHSSTGGFVSHCGWSSIAESMKFGVPVIAMARHLDQPLNGKLAAEVGVGMEVVRDENGKYKREGIAEVIRKVVVEKSGEVIRRKARELSEKMKEIGEQLIDRAVEELVQICKKKKDEQ
modifications: misc_feature - GT29-5; Panax ginseng
B3: GT29-9: Ginseng UDP-glycosyltransferase, 446 amino acids, SEQ ID NO: 18 (protein)
chain: B2 chain with I213F, L215F, L216Y, I246F, G392D, E395G
modifications: misc_feature - GT29-9; Panax ginseng
B4: GT29-13: Ginseng UDP-glycosyltransferase, 446 amino acids, SEQ ID NO: 22 (protein)
chain: B2 chain with I213F, L215F, L216Y, I246F, A346T, L362F, G368A, G377V, G392D, E395G
modifications: misc_feature - GT29-13; Panax ginseng
B5: GT29-18: Ginseng UDP-glycosyltransferase, 446 amino acids, SEQ ID NO: 26 (protein)
chain: MDNQKGRISIVMLPFLAHGHISPFFELAKHLSKRNCNIFLCSTPINLSSIKNRISDKDSSASIKLVELHLPSSPDLPPHYHTTNGLPSHLMVPLRNAFETAAPTFSEILKTLNPDLLIYDFNPSWAPEIASSHNIPAVCFIIGGAASFSMSLHSFKNPGEKYPFLDFDDNSNITPEPPSADNMKLLLDFMTCFERSCDIILIKSFRELEGKYFDFYSTLSDKTLVPVGPLVQDPMGHNEDPKTEQFINWLDKRAESTVVFVCFGSEYFLSNEELEEVAIGLEISMVNFIWAVRLIEGEKKGVLPEGFVQRVGDRGLVVEGWAPQARILGHSSTGGFVSHCGWSSITESMKFGVPVIAMARHFDQPLNAKLAAEVGVGMEVVRDENGKYKREDIAGVIRKVVVEKSGEVMRRKARELSEKMKEKGEEEIDRAVEELVQICKKKKDAQ
modifications: misc_feature - GT29-18; Panax ginseng
B6: GT29-11: Ginseng UDP-glycosyltransferase, 446 amino acids, SEQ ID NO: 20 (protein)
chain: MDNQKGRISIVMLPFLAHGHISPFFELAKHLSKRNCNIFLCSTPINLSSIKNRISDKDSSASIKLVELHLPSSPDLPPHYHTTNGLPSHLMVPLINAFETAGPTFSEILKTLNPDLLIYDFNPSWAPEIASSHNIPAVYFLTTAAASSSIGLHAFKNPGEKYPFPDFYDNSNNTPEPPSADNMKLLHDFIACFERSCDIILIKSFIELEGKYIDLLSTLSDKTLVPVGPLVQDPMGHNEDPKTEQIINWLDKRAESTVVFVCFGSEYFLSNEELEEVAIGLEISMVNFIWAVRLIEGEKKGVLPEGFVQRVGDRGLVVEGWAPQARILGHSSTGGFVSHCGWSSIAESMKFGVPVIAMARHLDQPLNGKLAAEVGVGMEVVRDENGKYKREGIAEVIRKVVVEKSGEVMRRKARELSEKMKEKGEEEIDRAVEELVQICKKKKDAQ
modifications: misc_feature - GT29-11; Panax ginseng
B7: GT29-17: Ginseng UDP-glycosyltransferase, 442 amino acids, SEQ ID NO: 24 (protein)
chain: MDNQEGRISIALLPFLAHGHISPFFELAKQLAKRNCNVFLCSTPINLSSIKNKDSSASIKLVELHLPSSPDLPPHYHTTNGLPSHLMVPLINAFETAGPTFSEILKTLNPDLLIYDFNPSWAPEIASSHNIPAVCFIIGGAASFSMSLHSFKNPGEKYPFLDFDDNSNITPEPPSADNMKLLLDFMTCFERSCDIILIKSFRELEGKYFDFYSTLSDKTLVPVGPLVQDPMGHNEDPKTEQFINWLDKRAESTVVFVCFGSEYFLSNEELEEVAIGLEISMVNFIWAVRLIEGEKKGVLPEGFVQRVGDRGLVVEGWAPQARILGHSSTGGFVSHCGWSSITESMKFGVPVIAMARHFDQPLNAKLAAEVGVGMEVVRDENGKYKREDIAGVIRKVVVEKSGEVIRRKARELSEKMKEIGEQLIDRAVEELVQICKKKKDEQ
modifications: misc_feature - GT29-17; Panax ginseng

Assay: In vitro transglycosylation at C-6, Rg1 as glycosyl acceptor, UDP-xylose as donor
Type: biochemical
Conditions: crude enzyme (E. coli lysate supernatant); TLC and HPLC, FIG. 7-9

Molecule | product formation from Rg1 and UDP-xylose (notoginsenoside R1)
B1 | can catalyze the formation of Notoginsenoside RI
B2 | can catalyze the formation of Notoginsenoside RI
B3 | can catalyze the formation of Notoginsenoside RI
B4 | can catalyze the formation of Notoginsenoside RI
B5 | can catalyze the formation of Notoginsenoside RI
B6 | can catalyze the formation of Notoginsenoside RI
B7 | can catalyze the formation of Notoginsenoside RI
